Source: patent US20080207523

System: Tenascin-C (human)
Test: competition

| Substance | EC50 (two TTA1-MAG2 joined via bis-maleimide peptide linker P5 (bAla-Ser-Ser-Ser-Dpr-Met-Cys-Ser-Ser-Ser-Lys), competition binding assay against the lead compound) | IC50 (MAG2 conjugate, monomer comparator) |
| --- | --- | --- |
| (TTA1-MAG2)2P5 aptamer dimer (22A) | 3.6 nM | – |
| TTA1-MAG2 aptamer monomer (2A, lead compound) | – | 5.6 nM |
